Test [1] has as its target Yu2 gp120 HIV-1 Env protein (HIV-1 (strain Yu2)) (UniProt P35961).

Where “and” joins values, the source holds several entries; their conditions need not be identical. Identical values can stand only once.

The values that follow come from US20150044137A1.

Regarding CD4-Ig (Fc fusion), the IC50 (read off the curve) in test [1] was 0.08 µg/mL and 0.1 µg/mL.

In the test with HIV-1 gp120 (HIV-1), VRC01 (antibody) displayed a contribution of CDR H1 to gp120-binding surface area of 44 Å2, a contribution of CDR H2/FR3 to gp120-binding surface area of 701 Å2, a contribution of CDR H3 to gp120-binding surface area of 122 Å2 and a total gp120-binding surface area (Total A 2) of 867 Å2.
